Test results as given in paper PMC3553982 (Nucleic Acids Research, 2012).

Experiments:
[1] = biological target: 5-FAM labeled Rim1ΔC18 (FAM-Rim1ΔC18) (S. cerevisiae) (UniProt P32445); assay: fluorescence polarisation
[2] = biological target: 5-FAM labeled Rim1 (FAM-Rim1) (S. cerevisiae) (UniProt P32445); assay: fluorescence polarisation
[3] = biological target: Human mitochondrial SSB (HsmtSSB) (human) (UniProt Q04837); assay: pull-down
Rim1ΔC18 (S. cerevisiae) = Rim1ΔC18 (S. cerevisiae) (UniProt P32445); assay: pull-down
SEC-MALS = biological target: the molecule itself; assay: SEC-MALS
Rim1 = biological target: T1, Rim1 (Saccharomyces cerevisiae, UniProt P32445 18-135); assay: fluorescence anisotropy
T1 sequence: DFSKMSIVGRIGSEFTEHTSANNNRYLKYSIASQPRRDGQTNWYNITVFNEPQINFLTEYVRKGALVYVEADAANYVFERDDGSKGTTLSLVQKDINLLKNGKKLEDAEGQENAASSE

Rim1ΔC18 = biological target: T2, Rim1ΔC18 (Saccharomyces cerevisiae, UniProt P32445 18-117, del118-135); assay: fluorescence anisotropy
T2 sequence: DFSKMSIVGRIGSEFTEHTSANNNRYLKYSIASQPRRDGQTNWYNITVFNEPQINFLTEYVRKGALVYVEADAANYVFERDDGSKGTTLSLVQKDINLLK

Chain of Human mitochondrial SSB (HsmtSSB) (human) (Q04837 17-148): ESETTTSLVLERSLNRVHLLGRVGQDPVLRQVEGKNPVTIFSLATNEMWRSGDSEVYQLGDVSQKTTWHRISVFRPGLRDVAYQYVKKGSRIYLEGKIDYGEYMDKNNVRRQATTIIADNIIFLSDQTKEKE

For “Pif1 (recombinant, nuclear form) (from UniProt P07271 46-859) (enzyme)”, the Kd [1] was 2500 nM, the Kd [2] was 690 nM and the relative amount of Pif1 co-precipitated (Pif1 bound to Rim1 taken as 1) [3] was 0.63. The relative amount of Pif1 co-precipitated (Pif1 bound to Rim1 taken as 1) (Rim1ΔC18 (S. cerevisiae)) was 0.45.

B1: Rim1ΔC18 (domain or fragment, S. cerevisiae, UniProt P32445 18-117, looked up)
chain: T2 sequence
B1 was tested, and the “stoichiometry N” value (SEC-MALS) was 4.

B2: 3'F-T70 (ssDNA)
DNA: TTTTTTTTTTTTTTTTTTTTTTTTTTTTTTTTTTTTTTTTTTTTTTTTTTTTTTTTTTTTTTTTTTTTTT
B2 showed a Kd (Rim1) of less than 1 nM and a Kd (Rim1ΔC18) of less than 1 nM.
